Source: patent US20100196361A1, “Method of inhibition of vascular development using an antibody” (DYAX CORP., priority 2003, published 2010)

T1: human Tie1 Fc (Homo sapiens, UniProt P35590)
T1 construct: selected against the Tie1 extracellular domain fused to human Fc or to a histidine purification tag
T1 sequence (P35590 22-759 limits assumed): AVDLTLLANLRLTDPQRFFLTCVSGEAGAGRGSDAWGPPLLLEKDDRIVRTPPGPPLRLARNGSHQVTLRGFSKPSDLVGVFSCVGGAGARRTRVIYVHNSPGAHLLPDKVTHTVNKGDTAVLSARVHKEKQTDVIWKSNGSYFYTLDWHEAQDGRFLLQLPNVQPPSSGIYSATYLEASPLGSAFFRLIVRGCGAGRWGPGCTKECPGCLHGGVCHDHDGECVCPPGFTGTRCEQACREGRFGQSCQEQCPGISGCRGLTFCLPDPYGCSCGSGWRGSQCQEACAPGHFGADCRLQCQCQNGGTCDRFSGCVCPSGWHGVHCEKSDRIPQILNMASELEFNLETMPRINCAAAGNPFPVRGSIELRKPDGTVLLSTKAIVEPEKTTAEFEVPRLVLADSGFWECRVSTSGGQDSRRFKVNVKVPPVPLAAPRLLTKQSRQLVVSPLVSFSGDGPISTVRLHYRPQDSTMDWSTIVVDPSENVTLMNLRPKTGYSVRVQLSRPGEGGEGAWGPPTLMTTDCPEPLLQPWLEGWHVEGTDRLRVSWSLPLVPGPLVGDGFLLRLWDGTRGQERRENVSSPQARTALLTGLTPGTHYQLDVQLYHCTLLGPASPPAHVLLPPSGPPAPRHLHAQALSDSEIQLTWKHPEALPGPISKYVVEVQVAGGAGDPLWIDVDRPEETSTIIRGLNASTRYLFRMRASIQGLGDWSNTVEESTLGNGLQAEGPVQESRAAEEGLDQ


Legend:
human Tie1 Fc = molecular target: T1, human Tie1 Fc; test: BIAcore, Fab over biotinylated Tie1-Fc on streptavidin chip; format: binding; conditions: Fab analyte; for kon: 830 RU
Description: Recombinant purified human Tie1-Fc antigen (Stock 2.45 mg/ml) was biotinylated using the EZ-link Sulfo-NHS-SS-Biotin (Pierce, Cat. 21331). The reaction was performed for 2 hours on ice in 50 mM sodium carbonate buffer, pH 9.6, in the presence of a 5-fold molar excess of biotinylating agent and was stopped by the addition of Tris-HCl, pH 7.5 (50 mM final concentration) followed by a 1-hour incubation on ice. Samples were then dialyzed against PBS. The antigen was then diluted 1/100 fold in HBS and was then captured onto a streptavidin chip. This was coated to a density of 830RU (resonance units). All analysis was performed in HBS buffer. The parental Fab E3 and germlined E3 Fab were prepared as described above. A stock solution of 0.587 mg/ml (11740 nM) was diluted 1/587 in HBS+BSA to obtain a stock of 20 nM and the germlined Fab E3 0.025 mg/ml (500 nM) was diluted 1/25 in HBS+BSA to obtain a stock of 20 nM. Serial dilutions were made of each Fab preparation to obtain 10 nM, 5 nM, 2.5 nM, and 1.25 nM solutions. For the association phase samples were injected at 30 μl/min for 4 minutes using kinject program. This was followed by a 10 minutes dissociation phase, any remaining sample was stripped from the Tie1 Fc surface at a flow of 50 μl/min with a single injection of 5 mM NaOH+1M NaCl for 18 seconds. All samples were run and analyzed in duplicate.
Sensorgrams were analyzed using the simultaneous ka/kd fitting program with 1:1 model in the BIAEVALUATION™ software 3.1.

[1] = tested on: LEII lung mouse endothelial cell line; test: Tube formation by mouse endothelial cell line LEII on […]; format: cell-based; conditions: LEII cells on MATRIGEL, 16 to 18 hours
Description: In order to assess mouse Tie1 cross-reactivity and biological activity on mouse Tie1, both E3 and germlined E3 were evaluated for their ability to inhibit tube formation in vitro using mouse endothelial cell line (LEII).
LEII lung mouse endothelial cell line (ATCC) was cultured in a T-25 flask in MEM medium with GLUTAMAX™ (Life Technologies Ltd., Paisley, Scotland) supplemented with 10% FCS, and 1% penicillin/streptomycin. During culturing, the cells were kept in a proliferative state by culturing them in a split ratio 1:5 at an approximate density of the monolayer of about 80%. LEII monolayers were treated with trypsin/EDTA (500 μl/dish) at 37° C. for 3 min. Trypsin activity was stopped by adding 3 volumes of complete MEM medium. The cells were carefully scraped, separated by repeated pipetting, and finally washed with PBS.LEII cells were seeded in their culture medium (20-40×103/50 μl/well of a 96-well plate) on a basement membrane (BIOCOAT™ Angiogenesis System; Becton Dickinson). […] The total length of the tube network was then quantified at 40× magnification by the METAVUE™ Software (Universal Imaging Corporation). Results from triplicate wells were expressed as mean vessel area per field ±SEM (relative units). […]

Molecule | koff (human Tie1 Fc) | kon (human Tie1 Fc) | inhibition of tube formation in mouse endothelial cells [1]
parental E3 Fab: soluble Fab fragment of the parental E3 anti-Tie1 antibody (antibody, V domains shown) VH: EVQLLESGGGLVQPGGSLRLSCAASGFTFSMYGMVWVRQAPGKGLEWVSVISPSGGNTGYADSVKGRFTISRDNSKNTLYLQVNSLRAEDTAVYYCARAPRGYSYGYYYWGQGTLVTVSSASTKGPSVFPLAPSSKSTSGG VL: DIQMTQSPLSLSASVGDRVTITCRASQGIGHYLAWYQQKPGKVPKLLIYTASTLQSGVPSRFSGSGSGTDFTLTINSLQPEDVATYYCQQFNSYPHTFGQGTRLDIK | 0.00061 s⁻¹ | 300000 M⁻¹ s⁻¹ | 
germlined E3 Fab: soluble Fab of E3 with LC framework regions germlined to DPK4; LC variable SEQ ID NO:159 (antibody, V domains shown) VH: EVQLLESGGGLVQPGGSLRLSCAASGFTFSMYGMVWVRQAPGKGLEWVSVISPSGGNTGYADSVKGRFTISRDNSKNTLYLQVNSLRAEDTAVYYCARAPRGYSYGYYYWGQGTLVTVSSASTKGPSVFPLAPSSKSTSGG VL: DIQMTQSPSSLSASVGDRVTITCRASQGIGHYLAWYQQKPGKVPKLLIYTASTLQSGVPSRFSGSGSGTDFTLTISSLQPEDVATYYCQQFNSYPHTFGQGTRLEIK | 0.00102 s⁻¹ | 300000 M⁻¹ s⁻¹ | 
DX-2210: E3 antibody in which the light chain has been germlined (antibody, V domains shown) VH: EVQLLESGGGLVQPGGSLRLSCAASGFTFSMYGMVWVRQAPGKGLEWVSVISPSGGNTGYADSVKGRFTISRDNSKNTLYLQVNSLRAEDTAVYYCARAPRGYSYGYYYWGQGTLVTVSSASTKGPSVFPLAPSSKSTSGG VL: DIQMTQSPSSLSASVGDRVTITCRASQGIGHYLAWYQQKPGKVPKLLIYTASTLQSGVPSRFSGSGSGTDFTLTISSLQPEDVATYYCQQFNSYPHTFGQGTRLEIK |  |  | potent inhibitor of tube formation in mouse endothelial cells
